Values of other authors in article PMC4664823.

Tests used:
Asp14 = Asp14 (UniProt position 14, GAILADVIGTT); conditions: competition between substrate and protons; various preparations in earlier work
Glu14 = Glu14 (UniProt position 14, GAILAEVIGTT); conditions: competition between substrate and protons; various preparations in earlier work

Substance	pKa (Asp14)	pKa (Glu14)
E14D-EmrE (Escherichia coli; E14D)	≈5.0–6.7 and ≈5.4	
EmrE (small multidrug resistance transporter), wild type (Escherichia coli)		6.8 to 8.5 and ≈7.3
